B1: PaHisZ (Psychrobacter arcticus ATP phosphoribosyltransferase regulatory protein HisZ) (natural protein)
chain: MLPDGVADVLFEDAHKQEVLRHQLTQQLITHGYQLVSPPMIEFTESLLSGASEDLKRQTFKIIDQLTGRLMGIRADITPQILRIDAHHGGDGIARYCYAGDVIHTLPSGLFGSRTPLQLGAEIFGCESIAADIELIDVLFSMINSLDMSAVLHVDLGHVTIFKRLAELAALSASDTEQLMQLYANKNLPELKQVCQVLPMGSDFYTLARFGHDIANLLGRLSENAQQDTKIVTAIDELQRLKAHLQVQWQCAVSIDVTELSGYHYHTGIVFNGYINSETQPLVRGGRFDGMKSNQLATNQPRQATGFSMDVSRLLAHTQLDAPFIVLIDYDAFNNLDSAQRQLLLQQVASLRQQGYRVTMPLTAEDMPVGLTHRLSLADNQWRLHAV
notes: HisZ, regulatory subunit of short-form ATP phosphoribosyltransferase, Psychrobacter arcticus; also called WT-PaHisZ
B2: R56A-PaHisGS (enzyme, Psychrobacter arcticus)
chain: MTEVTNSLPTSGLLNEANDEFLGLTLALSKGRILEETMPLLRAAGVELLEDPEASAKLIFPTSNPNVRVLILRASDVPTYVEHGAADFGVAGKDVLLEHGANHVYELLDLKIAQCKLMTAGVKDAPLPNRRLRIATKYVNVARAYFASQGQQVDVIKLYGSMELAPLVGLGDLIVDVVDTGNTLRANGLEARDHICDVSSRLIVNQVSYKRKFALLEPILDSFKNSINSTS
notes: HisGS, Psychrobacter arcticus, with R56A; made from the WT-PaHisGS expression vector
B3: C115S-PaHisGS (enzyme, Psychrobacter arcticus)
chain: MTEVTNSLPTSGLLNEANDEFLGLTLALSKGRILEETMPLLRAAGVELLEDPEASRKLIFPTSNPNVRVLILRASDVPTYVEHGAADFGVAGKDVLLEHGANHVYELLDLKIAQSKLMTAGVKDAPLPNRRLRIATKYVNVARAYFASQGQQVDVIKLYGSMELAPLVGLGDLIVDVVDTGNTLRANGLEARDHICDVSSRLIVNQVSYKRKFALLEPILDSFKNSINSTS
notes: HisGS, Psychrobacter arcticus, with C115S; made from the WT-PaHisGS expression vector
B4: R32A-PaHisGS (enzyme, Psychrobacter arcticus)
chain: MTEVTNSLPTSGLLNEANDEFLGLTLALSKGAILEETMPLLRAAGVELLEDPEASRKLIFPTSNPNVRVLILRASDVPTYVEHGAADFGVAGKDVLLEHGANHVYELLDLKIAQCKLMTAGVKDAPLPNRRLRIATKYVNVARAYFASQGQQVDVIKLYGSMELAPLVGLGDLIVDVVDTGNTLRANGLEARDHICDVSSRLIVNQVSYKRKFALLEPILDSFKNSINSTS
notes: HisGS, Psychrobacter arcticus, with R32A; made from the WT-PaHisGS expression vector
B5: R56A/K57A-PaHisGS (enzyme, Psychrobacter arcticus)
chain: MTEVTNSLPTSGLLNEANDEFLGLTLALSKGRILEETMPLLRAAGVELLEDPEASAALIFPTSNPNVRVLILRASDVPTYVEHGAADFGVAGKDVLLEHGANHVYELLDLKIAQCKLMTAGVKDAPLPNRRLRIATKYVNVARAYFASQGQQVDVIKLYGSMELAPLVGLGDLIVDVVDTGNTLRANGLEARDHICDVSSRLIVNQVSYKRKFALLEPILDSFKNSINSTS
notes: HisGS, Psychrobacter arcticus, with R56A and K57A; made from the WT-PaHisGS expression vector
B6: WT-PaHisGS (Psychrobacter arcticus ATP phosphoribosyltransferase catalytic subunit HisGS) (enzyme)
chain: MTEVTNSLPTSGLLNEANDEFLGLTLALSKGRILEETMPLLRAAGVELLEDPEASRKLIFPTSNPNVRVLILRASDVPTYVEHGAADFGVAGKDVLLEHGANHVYELLDLKIAQCKLMTAGVKDAPLPNRRLRIATKYVNVARAYFASQGQQVDVIKLYGSMELAPLVGLGDLIVDVVDTGNTLRANGLEARDHICDVSSRLIVNQVSYKRKFALLEPILDSFKNSINSTS
notes: HisGS, catalytic subunit of short-form ATP phosphoribosyltransferase, Psychrobacter arcticus

What was measured:
[1] = target: WT-PaHisGS (Psychrobacter arcticus ATP phosphoribosyltransferase catalytic subunit HisGS) (Psychrobacter arcticus) (UniProt Q4FQF7); test: enzyme activity titration (initial rate against HisZ concentration); apparent KD; fixed PaHisGS variant, HisZ (PaHisZ, His-tagged PaHisZ or AbHisZ) varied; initial velocities at 20 °C in 100 mM tricine, 100 mM KCl, 15 mM MgCl2, 4 mM DTT, pH 8.5, 5.6 mM ATP, 2 mM PRPP; fit to Eq. (3), or to Eq. (5) for R56A-PaHisGS with AbHisZ
[2] = target: WT-PaHisGS (Psychrobacter arcticus ATP phosphoribosyltransferase catalytic subunit HisGS) (Psychrobacter arcticus) (UniProt Q4FQF7)
[3] = target: R56A-PaHisGS (Psychrobacter arcticus) (UniProt Q4FQF7)
[4] = target: the molecule itself; test: crystal structure; R56A-PaATPPRT (R56A-PaHisGS with PaHisZ) crystals soaked in PRPP and ATP; molecular replacement with PDB 6FU2
R32A-PaHisGS [5] = target: T1, R32A-PaHisGS (Psychrobacter arcticus, UniProt Q4FQF7 1-231, R32A)
T1 sequence: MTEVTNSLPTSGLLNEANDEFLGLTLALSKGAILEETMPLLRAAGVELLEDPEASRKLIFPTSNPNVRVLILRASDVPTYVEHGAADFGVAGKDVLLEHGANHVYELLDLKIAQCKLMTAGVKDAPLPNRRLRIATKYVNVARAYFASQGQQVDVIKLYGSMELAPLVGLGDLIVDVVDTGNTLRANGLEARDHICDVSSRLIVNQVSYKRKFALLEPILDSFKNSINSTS

[6] = target: T2, WT-PaHisGS (Psychrobacter arcticus ATP phosphoribosyltransferase catalytic subunit HisGS) (Psychrobacter arcticus, UniProt Q4FQF7 1-231)
T2 chain: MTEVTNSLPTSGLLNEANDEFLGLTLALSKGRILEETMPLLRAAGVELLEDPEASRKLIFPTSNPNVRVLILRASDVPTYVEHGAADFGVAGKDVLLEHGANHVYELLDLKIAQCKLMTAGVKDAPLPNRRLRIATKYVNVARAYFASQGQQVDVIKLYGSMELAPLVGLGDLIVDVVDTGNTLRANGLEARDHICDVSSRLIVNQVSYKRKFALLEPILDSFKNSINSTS

R56A-PaHisGS [7] = target: T3, R56A-PaHisGS (Psychrobacter arcticus, UniProt Q4FQF7 1-231, R56A)
T3 sequence: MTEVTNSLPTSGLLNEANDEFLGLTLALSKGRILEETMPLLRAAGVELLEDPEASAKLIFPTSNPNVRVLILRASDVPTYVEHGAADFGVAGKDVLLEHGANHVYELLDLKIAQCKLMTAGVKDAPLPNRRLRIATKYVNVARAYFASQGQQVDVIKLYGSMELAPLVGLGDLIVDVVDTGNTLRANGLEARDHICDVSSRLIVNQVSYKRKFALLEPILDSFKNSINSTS

R56K-PaHisGS = target: T4, R56K-PaHisGS (Psychrobacter arcticus, UniProt Q4FQF7 1-231, R56K); test: cell-based or functional assay
T4 sequence: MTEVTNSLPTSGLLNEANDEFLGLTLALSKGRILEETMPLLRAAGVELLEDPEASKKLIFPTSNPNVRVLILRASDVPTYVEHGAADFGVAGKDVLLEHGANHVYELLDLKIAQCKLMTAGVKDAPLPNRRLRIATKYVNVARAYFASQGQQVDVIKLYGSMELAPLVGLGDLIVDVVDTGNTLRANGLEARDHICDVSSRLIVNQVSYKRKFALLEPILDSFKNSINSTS

R56A/K57A-PaHisGS = target: B5; test: cell-based or functional assay
R56A-PaHisGS [8] = target: B2; test: cell-based or functional assay
C115S-PaHisGS = target: B3; test: cell-based or functional assay
[9] = target: B6; test: cell-based or functional assay
R32A-PaHisGS [10] = target: B4; test: cell-based or functional assay
[11] = target: B1; test: enzyme activity titration (initial rate against HisZ concentration); apparent KD; fixed PaHisGS variant, HisZ (PaHisZ, His-tagged PaHisZ or AbHisZ) varied; initial velocities at 20 °C in 100 mM tricine, 100 mM KCl, 15 mM MgCl2, 4 mM DTT, pH 8.5, 5.6 mM ATP, 2 mM PRPP; fit to Eq. (3), or to Eq. (5) for R56A-PaHisGS with AbHisZ; settings: both partners purified
[12] = target: AbHisZ (Acinetobacter baumannii HisZ); test: enzyme activity titration (initial rate against HisZ concentration); apparent KD; fixed PaHisGS variant, HisZ (PaHisZ, His-tagged PaHisZ or AbHisZ) varied; initial velocities at 20 °C in 100 mM tricine, 100 mM KCl, 15 mM MgCl2, 4 mM DTT, pH 8.5, 5.6 mM ATP, 2 mM PRPP; fit to Eq. (3), or to …; settings: other: enzyme activity titration (initial rate against HisZ concentration)
[13] = target: the molecule itself; test: SEC; Superdex 200 10/300 GL, 4 °C, 20 mM HEPES pH 8.0; 1 mg/mL protein pre-incubated with 2 mM DTT

“AbHisZ (Acinetobacter baumannii HisZ) (natural protein)” gave a Kd [1] of 9000 nM, an apparent kcat of the WT-PaHisGS/AbHisZ hybrid complex [2] of 1.49 s⁻¹ and an apparent kcat of the R56A-PaHisGS/AbHisZ hybrid complex [3] of 0.22 s⁻¹.

In the case of B1, the binding result [4] is reported as “binds”, the Kd (R32A-PaHisGS [5]) is reported as 30 nM and the Kd [6] is reported as 60 nM. The Kd (R56A-PaHisGS [7]) was 200 nM, the “activation of the R56K-PaHisGS (6 µM) reaction rate by PaHisZ (20 µM)” value (R56K-PaHisGS) was ~11 fold and the “Activation by PaHisZ: ratio of kcat of PaATPPRT variant to v/ET of the PaHisGS mutant alone” value (R56A/K57A-PaHisGS) was 521 fold. For the same molecule, the “Activation by PaHisZ: ratio of kcat of PaATPPRT variant to v/ET of the PaHisGS mutant alone” value (R56A-PaHisGS [8]) was 250 fold, the “Activation by PaHisZ: ratio of kcat of PaATPPRT variant to v/ET of the PaHisGS mutant alone” value (C115S-PaHisGS) was 1860 fold and the “Activation by PaHisZ: ratio of kcat of PaATPPRT to v/ET of PaHisGS alone” value [9] was 29 fold. For the same molecule, the “Activation by PaHisZ: ratio of kcat of PaATPPRT variant to v/ET of the PaHisGS mutant alone” value (R32A-PaHisGS [10]) was 208 fold.

With B2 the Kd [11] was 4000 nM, the “K0.5 (concentration of AbHisZ at the inflection point, Eq. 5)” value [12] was 8.1 ± 0.4 µM and the “stoichiometry N” value [13] was 2.

With B3 the Kd [11] was 1700 nM and the “stoichiometry N” value [13] was 2.

In the case of B4, the Kd [11] is reported as 490 nM and the “stoichiometry N” value [13] is reported as 2.

B5 was tested, and the Kd [11] was 5000 nM and the “stoichiometry N” value [13] was 2.

B6 was tested, and the Kd [11] was 440 nM and the “stoichiometry N” value [13] was 2.
